The text below walks through data of publication doi:10.1101/2023.04.04.535563 (bioRxiv, 2023).

This assay concerns the target caleosin 2 (CLO2), Cub fusion (A. thaliana, UniProt Q9FLN9 1-243). Briefly: two-hybrid.

Sequence of caleosin 2 (CLO2), Cub fusion (Q9FLN9 whole entry, the tested form may be a part): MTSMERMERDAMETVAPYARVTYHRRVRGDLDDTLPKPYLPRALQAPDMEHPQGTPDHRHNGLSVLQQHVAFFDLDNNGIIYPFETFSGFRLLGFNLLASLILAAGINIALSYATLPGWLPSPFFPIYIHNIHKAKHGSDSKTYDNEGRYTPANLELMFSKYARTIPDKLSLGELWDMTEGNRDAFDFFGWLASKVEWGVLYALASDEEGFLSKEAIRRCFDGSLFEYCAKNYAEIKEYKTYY

B1: autophagy-related protein 8b (ATG8b), NubG fusion (natural protein, A. thaliana, UniProt Q9XEB5 1-117, looked up)
chain: MEKNSFKLSNPLEMRMAESTRIRAKYPERVPVIVEKAGQSDVPDIDKKKYLVPADLTIGQFVYVVRKRIKLGAEKAIFVFVKNTLPPTAALMSAIYEEHKDEDGFLYMTYSGENTFG
For the molecule B1, the “fold weaker β-galactosidase activity (against CLO1, CLO3 and OLE1)” value was 2 fold.
